Experimental data published in US20110015122, “[…] B VIRUS-BINDING POLYPEPTIDES AND METHODS OF USE […]” (published 2011).

Key:
Details in all cases: tags: MBP fusion (pMAL); label: 5'-biotin sense strand (SPR)
ZFPt = ZFPt (synthetic); test: SPR; HBS-EP; EMSA na
ZFPd = ZFPd (synthetic); test: SPR; HBS-EP; text elsewhere calls ZFPe the picomolar binder
ZFPq = ZFPq (synthetic); test: SPR; HBS-EP; EMSA na
ZFPb = ZFPb (synthetic); test: SPR; HBS-EP, 1:1 with drifting baseline
ZFPu = ZFPu (synthetic); test: SPR; HBS-EP; EMSA na
ZFPe = ZFPe (synthetic); test: SPR; HBS-EP; text elsewhere calls ZFPe the picomolar binder
ZFPf = ZFPf (synthetic); test: SPR; HBS-EP, 1:1 Langmuir
ZFPa = ZFPa (synthetic); test: SPR; HBS-EP, 1:1 with drifting baseline
ZFPr = ZFPr (synthetic); test: SPR; HBS-EP; EMSA na
ZFPn = ZFPn (synthetic); test: SPR; HBS-EP
ZFPk = ZFPk (synthetic); test: SPR; HBS-EP
ZFPc = ZFPc (synthetic); test: SPR; HBS-EP, 1:1 with drifting baseline
Sequence of ZFPc (synthetic) (chain, as listed by the source): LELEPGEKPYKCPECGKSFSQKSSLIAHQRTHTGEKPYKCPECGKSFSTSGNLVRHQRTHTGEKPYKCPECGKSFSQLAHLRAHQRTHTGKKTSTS

Sequence of ZFPt (synthetic) (chain, as listed by the source): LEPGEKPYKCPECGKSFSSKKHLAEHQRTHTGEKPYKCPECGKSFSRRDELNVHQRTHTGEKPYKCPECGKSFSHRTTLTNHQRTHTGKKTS
Sequence of ZFPa (synthetic) (chain, as listed by the source): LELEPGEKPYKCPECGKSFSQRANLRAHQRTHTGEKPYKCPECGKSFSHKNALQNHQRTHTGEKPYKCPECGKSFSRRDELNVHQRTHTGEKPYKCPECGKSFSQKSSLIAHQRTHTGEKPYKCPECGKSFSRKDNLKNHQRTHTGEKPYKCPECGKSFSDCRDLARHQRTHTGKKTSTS
Sequence of ZFPk (synthetic) (chain, as listed by the source): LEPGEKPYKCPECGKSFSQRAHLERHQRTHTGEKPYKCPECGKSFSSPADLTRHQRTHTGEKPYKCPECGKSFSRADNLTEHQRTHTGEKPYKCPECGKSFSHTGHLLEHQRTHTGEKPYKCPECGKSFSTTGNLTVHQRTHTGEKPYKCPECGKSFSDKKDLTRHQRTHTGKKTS
Sequence of ZFPq (synthetic) (chain, as listed by the source): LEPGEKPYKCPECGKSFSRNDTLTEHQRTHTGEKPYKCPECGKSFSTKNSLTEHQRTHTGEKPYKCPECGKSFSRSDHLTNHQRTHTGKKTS
Sequence of ZFPb (synthetic) (chain, as listed by the source): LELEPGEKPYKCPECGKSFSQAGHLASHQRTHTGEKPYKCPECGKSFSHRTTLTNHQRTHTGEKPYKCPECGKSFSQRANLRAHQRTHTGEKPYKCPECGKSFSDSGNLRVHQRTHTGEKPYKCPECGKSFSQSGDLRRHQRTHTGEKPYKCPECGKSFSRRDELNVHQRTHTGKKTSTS
Sequence of ZFPr (synthetic) (chain, as listed by the source): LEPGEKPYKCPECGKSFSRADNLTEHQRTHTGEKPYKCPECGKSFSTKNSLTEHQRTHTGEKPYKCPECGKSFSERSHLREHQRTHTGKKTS
Sequence of ZFPd (synthetic) (chain, as listed by the source): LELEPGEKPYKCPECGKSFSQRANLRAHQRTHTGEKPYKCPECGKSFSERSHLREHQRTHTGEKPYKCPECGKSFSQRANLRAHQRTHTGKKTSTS
Sequence of ZFPe (synthetic) (chain, as listed by the source): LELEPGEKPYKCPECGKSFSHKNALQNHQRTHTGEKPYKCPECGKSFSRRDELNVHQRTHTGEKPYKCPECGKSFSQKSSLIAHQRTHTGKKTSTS
Sequence of ZFPu (synthetic) (chain, as listed by the source): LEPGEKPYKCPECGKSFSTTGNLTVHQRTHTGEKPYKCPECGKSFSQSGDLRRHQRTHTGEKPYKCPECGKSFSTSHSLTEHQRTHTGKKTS
Sequence of ZFPf (synthetic) (chain, as listed by the source): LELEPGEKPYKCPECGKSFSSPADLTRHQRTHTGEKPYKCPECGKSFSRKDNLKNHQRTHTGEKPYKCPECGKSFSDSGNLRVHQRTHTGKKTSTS
Sequence of ZFPn (synthetic) (chain, as listed by the source): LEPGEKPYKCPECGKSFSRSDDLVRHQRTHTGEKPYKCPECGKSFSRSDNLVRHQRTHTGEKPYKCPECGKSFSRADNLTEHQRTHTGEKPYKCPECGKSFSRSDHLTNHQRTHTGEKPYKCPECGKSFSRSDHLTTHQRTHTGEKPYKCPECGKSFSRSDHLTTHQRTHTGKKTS

B1: ZFPt target oligo (dsDNA)
DNA 1: AGTACTAGTATGCCCAGTACT
DNA 2: AGTACTGGGCATACTAGTACT
- Kd (ZFPt): 1070 nM

B2: ZFPd target oligo (dsDNA)
DNA 1: AGTACTAAAAGCAAAAGTACT
DNA 2: AGTACTTTTGCTTTTAGTACT
- Kd (ZFPd): 0.471 nM

B3: ZFPq target oligo (dsDNA)
DNA 1: AGTACTAGGCCTCCGAGTACT
DNA 2: AGTACTCGGAGGCCTAGTACT
- Kd (ZFPq): 1290 nM

B4: ZFPb target oligo (dsDNA)
DNA 1: AGTACTATGGCAAACAAAAGTTGAAGTACT
DNA 2: AGTACTTCAACTTTTGTTTGCCATAGTACT
- Kd (ZFPb): 40.2 nM

B5: ZFPu target oligo (dsDNA)
DNA 1: AGTACTCCAGCAAATAGTACT
DNA 2: AGTACTATTTGCTGGAGTACT
- Kd (ZFPu): 2470 nM

B6: ZFPe target oligo (dsDNA)
DNA 1: AGTACTATAATGATTAGTACT
DNA 2: AGTACTAATCATTATAGTACT
- Kd (ZFPe): 67.1 nM

B7: ZFPf target oligo (dsDNA)
DNA 1: AGTACTAACAAGACAAGTACT
DNA 2: AGTACTTGTCTTGTTAGTACT
- Kd (ZFPf): 185000 nM

B8: ZFPa target oligo (dsDNA)
DNA 1: AGTACTGCCAAGATAATGATTAAAAGTACT
DNA 2: AGTACTTTTAATCATTATCTTGGCAGTACT
- Kd (ZFPa): 12.3 nM

B9: ZFPr target oligo (dsDNA)
DNA 1: AGTACTAGCCCTCAGAGTACT
DNA 2: AGTACTCTGAGGGCTAGTACT
- Kd (ZFPr): 502 nM

B10: ZFPn target oligo (dsDNA)
DNA 1: AGTACTTGGTGGAGGCAGGAGGCGAGTACT
DNA 2: AGTACTCGCCTCCTGCCTCCACCAAGTACT
- Kd (ZFPn): 69.4 nM

B11: ZFPk target oligo (dsDNA)
DNA 1: AGTACTACCAATCGCCAGACAGGAAGTACT
DNA 2: AGTACTTCCTGTCTGGCGATTGGTAGTACT
- Kd (ZFPk): 5.14 nM

B12: ZFPc target oligo (dsDNA)
DNA 1: AGTACTAGAGATATAAGTACT
DNA 2: AGTACTTATATCTCTAGTACT
- Kd (ZFPc): 99 nM
